Source: the supplement of paper PMC12042874
± gives the uncertainty stated by the source.

Assay: amyloid nucleation score (Sup35N fusion, yeast selection) (log enrichment); library NNK3; higher = more nucleation; inactive = no reads after selection
Summary of the method: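 Growth for 7 days at 30°C on medium lacking adenine and uracil followed a 24-hour induction with 100 μM copper sulfate of psi-negative yeast expressing peptides of 20 random codons fused to Sup35N. Input and output plasmid inserts were sequenced with Illumina, and sequences with under 100 input reads were excluded. Nucleation score is the DiMSum log enrichment of output over input reads, centred on the mode score of non-aggregating sequences.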

| Substance | amyloid nucleation score |
| --- | --- |
| INWIWAYI | inactive |
| ENLLNMFWMFPLWYLGFNLG | inactive |
| TMYIAHGELGFIRNHLDISR | 1.04 ± 0.11 |
| AVWNFTQFYAENEGHNVSLS | inactive |
| YQVRV | 0.056 ± 0.33 |
| FFVYHTILRLPNGAGLRCGP | inactive |
| VWFLLPRGLRCV | inactive |
| GWAMTWNDVYLSYSIYSHSK | 0.514 ± 0.4 |
| WSLCGDVRTQHINHVSVQVS | inactive |
| RSLTLKLTGGVLALMRS | inactive |
| TLNIFVVSFNDYWVSVIIKD | 2.46 ± 0.066 |
| INITLWWVTVEFNMSARVQI | inactive |
| ASAYSTYKVERLGFDGVQSS | inactive |
| LGAAASSGRPMLTKYHLFWA | inactive |
| MLSWLYTSGRSRYVILLQP | inactive |
| YCGLVHVSHLGVGREIGRRV | inactive |
| VNFVSFRP | inactive |
| NCPQWDVCFTYLSSGRQRAD | inactive |
| IIRVGMLWVGKLLRRSWGEQ | inactive |
| YLDNVFNGPAFLYSGSRDR | 1.02 ± 0.18 |
| ICVLCSGIMKMCCAMGDLSV | 1.36 ± 0.064 |
| AFSDGTLSLTSKVRLGDS | inactive |
| NFKAT | inactive |

| Substance | amyloid nucleation score |
| --- | --- |
| ATRSLINQQCCRNYASKVLN | inactive |
| LNYDSSTRLNVLW | inactive |
| TFIFVLVSC | inactive |
| DRHVSQFSVWDW | inactive |
| SAAGKQLKSRFIGRR | inactive |
| MSVQHER | inactive |
| DARVFKAVFRVLCDLVPASC | inactive |
| KFSCSDNPE | inactive |
| RCREFERKLALSLQSVGS | inactive |
| SFIVETVDQDVLG | inactive |
| CCVGYFYGLEV | 2.06 ± 0.064 |
| SFFLDILRVWYYNVPNVPAR | inactive |
| LLIGSGVSYFKTWFARHLTA | inactive |
| VRARFHDGQF | -1.05 ± 2.4 |
| RKLFFEFFFCDSVH | inactive |
| CLNHQASMVSTAPVEFFRFL | inactive |
| SFVMGSAANL | inactive |
| KDFIMHNILYMRRWAFTPLA | inactive |
| WHMWVLKYIFAGLVHSSPWG | inactive |
| LAGTTSASWGGS | inactive |
| YDDVVVI | inactive |
| SYCATCHIPRENMSLQCVME | 1.3 ± 0.1 |
| FVFRHYSRPDIFQDGKKSAN | 1.08 ± 0.15 |

| Substance | amyloid nucleation score |
| --- | --- |
| IVVEQLHDWDIPMKGTTFRS | inactive |
| SEKPIFSHPNLIYENGIGWI | inactive |
| HVFLLHVMAFYFDLSCFG | inactive |
| DMLAYADMLHNFFNSSVHFW | inactive |
| LLTNLCIQYISSTLYYDRLF | inactive |
| DRKNCRRSHVWVMRMGNWYC | inactive |
| VAFVNKCFSD | inactive |
| HYDMNFIARVPLSQSL | inactive |
| SVSARSRRLWGSMRIAVTVF | inactive |
| RLQMGVLDLFYFD | inactive |
| YATACGMILQKVVGKLTLLA | -0.395 ± 0.46 |
| LKKVLPYGVRWTDITGPWVS | inactive |
| VRISMRDMVWSRFWLPVVLK | inactive |
| LTGRISIARFEVDLGFGCPS | 0.682 ± 0.18 |
| TRLTL | inactive |
| PKLSRSYVLSMMVTWRNSKV | inactive |
| KYRQIMNGFKFSRANSFVTV | inactive |
| YINSFCTRKSYIY | inactive |
| VGRAD | inactive |
| WSIRYVLICIGVSKIVCRPL | inactive |
| LHLHFAIKKLGLRLSTKWWV | inactive |
| THFNGEFWALSTVCMWGGRV | 0.06 ± 0.69 |
| SVGHSFERKWSGCHWEISNL | inactive |

| Substance | amyloid nucleation score |
| --- | --- |
| WNESAGGFRYFPEDAKCDRA | inactive |
| HYADRTAWPSACASLYSHAL | inactive |
| MCMSAFEGSSIICDCMVVLL | 1.85 ± 0.088 |
| RMGYFSCQVRYSRFLTIPSR | inactive |
| GKSIYCWFWVKMQEAERLMS | inactive |
| WFYMSRDGYEAVKRLTKLGK | inactive |
| QNRLQTSFMVGQRGNTLVTN | inactive |
| TFSNYALNVSAYRVDIFEML | 0.979 ± 0.14 |
| TCYSIERFACY | inactive |
| NLLSSSFLPPGWRSLKLGSS | inactive |
| NFLRAKDLEYRTV | -0.761 ± 1.1 |
| IRQVLCCESLRLGSYMQINT | inactive |
| LFVASLTTCIFWA | 2.4 ± 0.054 |
| GVRHLYVPMFHFVIMGRWHH | inactive |
| RAALLGVSADFTKHTTRVWE | inactive |
| SVIILYRCSFRGWRSHASGN | 1.05 ± 0.1 |
| KYLGMMVKNANMLALCYAGW | -0.279 ± 0.68 |
| LIYRLGNVHVPKYW | inactive |
| LYQRYMDMTSYCS | inactive |
| IFMLWPAD | inactive |
| PFTTSYPDVQLTMKFNSWRN | 1.56 ± 0.13 |
| GLEAPTCPEVFNIGIFSYYH | 1.45 ± 0.068 |
| GNISGLNLVCEPIAVGSACE | -0.962 ± 1.9 |

| Substance | amyloid nucleation score |
| --- | --- |
| SLKCIRSVLNPWAGAALYPS | inactive |
| SSSDCGNMNTTPRWAGGIGA | inactive |
| KMTFSWSLHHYCKP | 1.08 ± 0.19 |
| GFFTYTTRSGDSSYGVEASA | -0.289 ± 1.1 |
| VKIYLSPTWEHIDRVYNCAL | 1.59 ± 0.059 |
| YDRNLNMCLQEMHRNIR | inactive |
| IVSTSYNWDDACYDRTLQGG | inactive |
| RGIWGLSLYGVISNVSGLSK | -0.103 ± 0.43 |
| GQSLLFRISLISCV | 0.199 ± 0.23 |
| EFLESMNFVVTFLRWIQWTN | inactive |
| TVLCFSACQENFSSSLRRLY | inactive |
| ILTLLCRFTYRDETPCLWTV | inactive |
| SLHVSTAFVFDIVLSNYLPV | inactive |
| LMSLWLLLWGTEESALDMAD | inactive |
| LLLSFYLNGILVIHML | inactive |
| HNSYRED | inactive |
| FNLSVINSRGQLECVLNPVK | inactive |
| CGFDMY | 1.84 ± 0.094 |
| VSHTSNTTYRWRMFIYWSAF | 0.104 ± 0.26 |
| YRDFSEGSFPLIRVLMGMVG | inactive |
| NNAVQLYFYRLDMSYA | inactive |
| DWRAVLLGITSFA | inactive |
| WVPAGCKSVMVGGAG | inactive |

| Substance | amyloid nucleation score |
| --- | --- |
| CGGANVLYRVQYDPWRS | inactive |
| MCTNYYITCRSKSCVICRRI | 2.31 ± 0.059 |
| LSTWSHPSCDRTYVNLKNIV | inactive |
| YISSFRGDIVIY | inactive |
| FGYNYLCTFSFIISMVHVRF | inactive |
| GVNCLSLGSKIICGSTGWFL | 2.47 ± 0.087 |
| WQICSGA | inactive |
| IVVLWV | -0.341 ± 0.39 |
| YVCCYARNDRRFSWERRHLS | inactive |
| AWYFAP | inactive |
| GVAPYFQCVLIEEERVEGQG | inactive |
| KTISC | inactive |
| IYGLLVDRRAVIFFEYMHLV | inactive |
| GAGTGQWLDSFGVEIHHPRS | inactive |
| AFKNYVPMFTW | -0.335 ± 0.73 |
| YWSAVHEDYHTASMMEPLWW | inactive |
| RCIVSRLTWGTILISFLQNR | inactive |
| VMDGFHKHIFFVVCTSRHNF | 0.271 ± 0.77 |
| VTFKDMDTHGWVHLSIHVAE | inactive |
| IRYVFPFDIAHYFYLTKRYG | inactive |
| NIICTWCGGFMRLNLNV | 1.9 ± 0.073 |
| GFIVSRERLNVMVLFSVYW | inactive |
| RRMRFCKTSYEYLCNYAAPK | inactive |

| Substance | amyloid nucleation score |
| --- | --- |
| CGRGDSVLSI | inactive |
| RRCMFIFSYWPRRVLATVLK | inactive |
| LLRVSYFIVLRTLN | inactive |
| YRMSR | 1.36 ± 0.1 |
| YKDIRCGWLMFGVANLQ | inactive |
| SNALYCPWHWLIHQVV | inactive |
| VYWTEWTCMDIDGIQFLVNV | inactive |
| QVGSLFWLRY | inactive |
| DCVGYRGGDGFAWTADELWS | inactive |
| YHTYKDSRTGFFMGQHSCMS | inactive |
| RYSRSKIG | inactive |
| TSDIAPFRDLLIASA | inactive |
| NTRMDNLTNAWRAQYALSP | inactive |
| EDHFSLHACVSSGTLSKVVY | inactive |
| WLSFFRWR | inactive |
| LAWIVCDCIGQCCTFIVRVW | inactive |
| DPLILPIVVDRIVADDCYCQ | inactive |
| EIIFLS | inactive |
| ALNLVLLLCVTRRSRLSQSS | inactive |
| VYAEKMMVSSHLCGLRRRFK | inactive |
| YLSGKLFTRAP | inactive |
